# Reference: the DeepSol protein solubility set
# Experiment: soluble on expression in E. coli; label from the status in PepcDB or PDB records
row,Sequence,soluble on expression in E. coli
1,TFGPVFEDQPLSVLFPEESTEEQVLLACRARASPPATYRWKMNGTEMKLEPGSRHQLVGGNLVIMNPTKAQDAGVYQCLASNPVGTVVSREAILRFGFLQEFSKEERDPVKAHEGWGVMLPCNPPAHYPGLSYRWLLNEFPNFIPTDGRHFVSQTTGNLYIARTNASDLGNYSCLATSHMDFSTKSVFSKFAQLNLAAEDTRLFAPSIKARFPAETYALVGQQVTLECFAFGNPVPRIKWRKVDGSLSPQWTTAEPTLQIPSVSFEDEGTYECEAENSKGRDTVQGRIIVQAQPEWLKVISDTEADIGSNLRWGCAAAGKPRPTVRWLRNGEPLASQNRVEVLAGDLRFSKLSLEDSGMYQCVAENKHGTIYASAELAVQA,soluble
2,TGALMASSPQDIKFQDLVVFILEKKMGTTRRALLMELARRKGFRVENELSDSVTHIVAENNSGSDVLEWLQAQKVQVSSQPELLDVSWLIECIGAGKPVEMTGKHQL,soluble
3,THGAQHANPVVSGSVSPRPAPAKEQPSVAPSQSSVPPQPSIGEQRRQPETTAPTITEDKPEQTKVVPPTRPMATSTVGSEGRFTLRGIRNKQEQLQNNIQEVRTEMTESFDEEQLQLAWIEFAETKLSEEIHLKETMANCLPKLRPGTSAFEVEVLNSRQEEEINNVSARLLSFLADKLCNTTIRMNVRVSESTSLNRVPVSLDEKIERLNQENPLFDELRMRLGLSLV,not soluble
4,TITNILLVGVGGQGILLASEILSEAFMLAGFDVKKSEIHGMSQRGGSVVSHVRYGKEVHSPIVPEGEGDILFGFELMETYRYLPLLRKGGTVVANDLRISPPSVLLGQASYPDDLPDRIRALFPDFLLVDGQHLAAEAGNVRAANTVLLGAVAKQLDIPDECWHKALERMVPPKALDVNRKAFQLGRAL,not soluble
5,TKDWDWNIEINLGHNKNKLKKLYKTKNAEGQFVEKPIIISDGTSIAGTAKRVLQPGYPCDTYYLKEWAGVNPENGAPQWYKTVENEDGTLSRQKTSNYSEADQVKCGSSSPDIFGGFSTVLRWKDIDLNAVFGYSVGGQIYNYSRQEYDSDGAYNDRNQMKLQKGWNRWEKPGDIATHPVASYSNTSKSNSSSSRYLEKNDYLKLRSLSIGYNLKLPQYYINNMRIFFTGENLFCVTNYSGVDPEIPASDGSVIGTALPSVYPTVRKFMFGLNLTF,not soluble
6,TLNIVITGAKGFVGKNLKADLTSTTDHHIFEVHRQTKEEELESALLKADFVVHLAGVNRPEHDKEFSLGNVSYLDHVLDILTRNTKKPAILLSSSIQATQDNPYGESKLQGEQLLREYAEEYGNTVYIYRWPNLFGKWCKPNYNSVIATFCYKIARNEEIQVNDRNVELTLNYVDDIVAEIKRAIEGTPTIENGVPTVPNVFKVTLGEIVDLLYKFKQSRLDRTLPKLDNLFEKDLYSTYLSYLPSTDFSYPLLMNVDDRGSFTEFIKTPDRGQVSVNISKPGITKGNHWHHTKNEKFLVVSGKGVIRFRHVNDDEIIEYYVSGDKLEVVDIPVGYTHNIENLGDTDMVTIMWVNEMFDPNQPDTYFLEV,soluble
7,TLQIQFKKYELPPLPYKIDALEPYISKDIIDVHYNGHHKGYVNGANSLLERLEKVVKGDLQTGQYDIQGIIRGLTFNINGHKLHALYWENMAPSGKGGGKPGGALADLINKQYGSFDRFKQVFTETANSLPGTGWAVLYYDTESGNLQIMTFENHFQNHIAEIPIILILDEFEHAYYLQYKNKRADYVNAWWNVVNWDAAEKKLQKYLTK,soluble
8,TLTTTPNQLTDGLEKSLRPLNKIHVPVHEIAMMMSIALRFIPILLEETDKIMKAQIARGADFENGNLIQKVKNMVPLLVPLFISAFRRANDLAMAMEARCYHGGDNRTQMKPLKYKKRD,not soluble
9,TMEEELEPVVRHLVEQRWPFRLHATYNESITRMLDVFEKVNRDIPFNGLPWFFDHAETITPQNIERVRALGGGIAIQDRMAFQGEYFVDRYGAKAAEQTPPIKRMLEMGVPVGAGTDATRVSSYNPWTSLYWLVSGKTVGGMELYPEGLSRDTALQLFTQGSAWFSSEQGKKGQIKVGQLADLAALSLDFFSVDEEAIKGIESVLTIVDGKVVYGAGEFDKFGPPQVPVLPEWSPVTKVPGHWRVGTPSLAAAVHQCSGPCGVHAHSHEKARHSSVPVNDFQGFWGALGCSCFA,not soluble
10,TNCVTISQREILKGVEGVTWFEVLLEKTSCITIAAQNRPSIDLWLDDVKQSSVMASKEFCMKVEVSETQIAARCPTQGDATLPMEGKDDYVCKKTFSDRGWGNGCALFGKGSIVGCAKVACNTANVMKTHIYEQQAVQYVVGIEVHRGEVIKANVSDKVIKASFSAEAEKHTVEIPDYGSLDFTCRVVASADLSNIRLLEVDGHYFNVHEDWLDDLPLPWRINAGPWRGMDKLVNFREPYAVKMVIMGYGDQRPAVLGALDKAEEIKKVGDNYHLNGGHVSCKVSVAKLKLKGMTYVVCGGKFAWAKKPIATNHDTVAMEVTYTGNDTPCRVTVKNVKENSDDQGTLITTNPFVESNGATIFLELEPVYGLSTIKVGDITYQWNQQGSVIGKALEHHHHHH,not soluble
11,TNTDQSIKFTSKSNSINKNNQNKELALLRDNLMNEAKVDEPLSFEKRFENFKNKYSDIHSLNNSVFSLHDVYDLLGGFKQSLTTFFDEVIAQQQKIKDADKIFPSTKDNPPKEENPNVLDTLANYQGAGFFPSLGKNGFNLPEAVFQNFTDFRINDYKIKNFNVDLVSENDIIKHDKVRYAFEV,not soluble
12,TPDWRVSLRGSLAYNRNKVISLYYTDRLYTSETALTPDYEVGKAYNMLYGLKSLGINPITGLPVFQGADGSEISPTQNPARENFIVLGHSTPPYSGTFNLNFSYRNFDLDMDFYYVFGGIKPYNYSYVRSADSANKNAIQKQLENMWFHRGDEGKIYHSPFYISPANASLQQPNTETVGKSDYLKLAMLSLRYRVPHTFLEKNCHFIKYANIAFQASNLFMITPYKESDPETGSLAGAMQPVLTINLSLTF,not soluble
13,TPGVEKRVIWAPGGYERRTPYALVYLHGFSATSEEIRPVPDHIAQALGANLVFTRLQGHGRGDDAMAQGSASGWMRDTAEALAAGRAVGERVIVIATSTGATLAAAAALDPEMSADVAAMILVSPNFGVNDPLAFVPTLPGARYWLPRLMGDARDVTGPDADKNTYWTTRYSWSALVPMSVLVQAVVSLDFAQARVPALFWFSDQDRVVRADLTRALAGRWGGPVRVEAVTMGPGDDPSSHVIAGDIMSPGQTDIAVAGMLAWLREQGI,not soluble
14,TPPPTQWSYLCHPRVKEVQDEVDGYFLENWKFPSFKAVRTFLDAKFSEVTCLYFPLALDDRIHFACRLLTVLFLIDDVLEHMSFADGEAYNNRLIPISRGDVLPDRTKPEEFILYDLWESMRAHDAELANEVLEPTFVFMRAQTDRARLSIHELGHYLEYREKDVGKALLSALMRFSMGLRLSADELQDMKALEANCAKQLSVVNDIYSYDKEEEASRTGHKEGAFLCSAVKVLAEESKLGIPATKRVLWSMTREWETVHDEIVAEKIASPDGCSEAAKAYMKGLEYQMSGNEQWSKTTR,soluble
15,TPQYESTTKMYVLSKQDNNTLTQQDMQTSLSLTKDYAELIKSRTVTEGVIAQLNLDLTHEELLKKMTVDSATDTRILSITVTDADPYEACKIANAIRDVAANHIKNVMDIDAVNVVETANIPDQQSSPSISKN,not soluble
16,TQGERRQAEQLAVQTARTISYMPPVKELIERKDGHAAQTQEVIEQMKEQTGAFAIYVLNEKGDIRSASGKSGLKKLERSREILFGGSHVSETKADGRRVIRGSAPIIKEQKGYSQVIGSVSVDFLQT,not soluble
17,TQVFDLEGYGAISRAMGGTSSSYYTGNAALISNPATLSFAPDGNQFELGLDVVTTDIKVHDSHGAEAKSSTRSNNRGPYVGPQLSYVAQLDDWRFGAGLFVSSGLGTEYGSKSFLSQTENGIQTSFDNSSRLIVLRAPIGFSYQATSKLTFGASVDLVWTSLNLELLLPSSQVGALTAQGNLSGGLVPSLAGFVGTGGAAHFSLSRNSTAGGAVDAVGWGGRLGLTYKLTDNTVLGAMYNFKTSVGDLEGKATLSAISGDGAVLPLDGDIRVKNFEMPASLTLGLAHQFNERWVVAADIKRAYWGDVMDSMNVAFISQLGGIDVALPHRYQDITVASIGTAYKYNNDLTLRAGYSYAQQALDSELILPVIPAYLKRHVTFGGEYDFDKDSRINLAISFGLRERVQTPSYLAGTEMLRQSHSQINAVVSYSKNFHHHHHH,soluble
18,TTFTTRDGTQIYYKDWGSGQPIVFSHGWPLNADSWESQMIFLAAQGYRVIAHDRRGHGRSSQPWSGNDMDTYADDLAQLIEHLDLRDAVLFGFSTGGGEVARYIGRHGTARVAKAGLISAVPPLMLKTEANPGGLPMEVFDGIRQASLADRSQLYKDLASGPFFGFNQPGAKSSAGMVDWFWLQGMAAGHKNAYDCIKAFSETDFTEDLKKIDVPTLVVHGDADQVVPIEASGIASAALVKGSTLKIYSGAPHGLTDTHKDQLNADLLAFIKG,soluble
19,TTHKFEHPLNEKTRIYLRVESLLRQAHLASGFADNHQYQLFFRALFDMVEIFEQIQLKSELAKDLEKQRLSYRHWLNVEGVDQEALNSLLNEIDVVHSQLMGAERFGQALKEDRFLSSIRQRFNLPGGSCCFDLPALHYWLHLPIERKKHDANQWQKSLKPLSDALTLWLKLARETGHFKAQIARAGFFQSDADEANILRLHIPMKYGVYPMISGHKNRFAIKFMAFENGQACSQDVEFELAVC,soluble
20,TVDKRYLNDEHFIDPELVSQRAAPLTEADKQILADKSLGYRVLNLTVDTYNDATTSRWHRSIGGYHAAKLQRYQDLIEHQLSKGNREVVNMLNTKYIIVPGENNRPSPMSNPDAYGPAWPAGSIRWVGNANEEMMALDSNRLTRDIAVVDERFSSESLKRLPALTDSTASISLKEYAPNRQVYEAVSTQPMLGIFSEIYYPHGWTATIDNQAVPIIRANYILRALEVPAGRHKIEFRFDPKSLHITEAIAKT,not soluble
21,VAARTGNDPATDVRSTILTAAETCFERFGITKTTMEDVARAADMSRATVYRYFSDRESLIIESVARRARKNMKPARAFIAKWPTIEERLVEGICNNVESGLRDPMVHLLVSPSEMTLANSLLTTSGKAVELTSELWEPILRDAQEAGDIRADVDLALLCEWISELEIMCISQLNGGTGSLERFREKLRAFLVPSLLPAGN,not soluble
22,VAEEATGDWGQIFTAFNELSQTLAEYEEERVKHRNELQQERDRFRRLFQSIPEPAVVVEYTGNKTLIHNVNEAFEETFGYEASNAVGGDINDFIVPDGSLEEAESIDQLSSSGKQVTHEVRREAADGKRDFLLRSTPAVDGE,not soluble
23,VAEQKVKRNVELAGVDVILVHRMLKNEVPVSEYLFMTDVVAQCLDESVRKLATPLTHDFEGIGETSTHYIDLATSDMPPAVPDHSFFGLLWADVKFEWHALPYLLGFKKACAGFRSLGRGATEEPAEMG,not soluble
24,VAKATNAPLSVSKIDFKRGDDGSGRLILKFDGQGATPDLRTQGGTVLVDLGTAVLPTVLQRQINVVDFATPVQRIDAKPMGKGAQLVLSTKGAFESLAYQTGDEYVVEIVPRKGEAAM,not soluble
25,VDICNHALLVGFGRVGSLLGEKLMAQGIPLVVVETSRTRVDELRERGISAVLGNAANEEIMELAHLDCARWLLLTIPNGYEAGEIVASAREKCPNIEIIARAHYDDEVDYIIDRGANQVVMGEREIARAMLRLLETPPAG,not soluble
